Measurements taken from PMC4164947 (The Journal of Cell Biology, 2014).

Key:
[1] = biological target: C. elegans Vps4^E219Q (as used alone in light scattering and EM) (C. elegans); test: SEC-MALS
[2] = biological target: C. elegans Vps32 (full length, wild type) (C. elegans); test: cryo-EM imaging
[3] = biological target: C. elegans Vps32^E94K (C. elegans); test: SEC
[4] = biological target: the molecule itself; test: negative staining EM

C. elegans Vps4^E219Q (as used alone in light scattering and EM) (enzyme)
stoichiometry N [1]: 6

C. elegans Vps32 (full length, wild type) (natural protein)
stoichiometry N [2]: 800

C. elegans Vps32^E94K (natural protein)
percent of the total protein in oligomers [3]: < 5%

B1: yeast Snf7^R52E (natural protein)
chain: MWSSLFGWTSSNAKNKESPTKAIVRLREHINLLSKKQSHLRTQITNQENEAEIFLTKGNKVMAKNALKKKKTIEQLLSKVEGTMESMEQQLFSIESANLNLETMRAMQEGAKAMKTIHSGLDIDKVDETMDEIREQVELGDEISDAISRPLITGANEVDEDELDEELDMLAQENANQETSKIVNNNVNAAPISENKVSLPSVPSNKIKQSENSVKDGEEEEDEEDEDEKALRELQAEMGL
binding result [4]: binds
